T1: Human nectin-4 ECD-6His (TNT-175) (human, UniProt Q96NY8 32-349)
T1 construct: the entry holds the extracellular domain with the C-terminal 6His tag
T1 sequence: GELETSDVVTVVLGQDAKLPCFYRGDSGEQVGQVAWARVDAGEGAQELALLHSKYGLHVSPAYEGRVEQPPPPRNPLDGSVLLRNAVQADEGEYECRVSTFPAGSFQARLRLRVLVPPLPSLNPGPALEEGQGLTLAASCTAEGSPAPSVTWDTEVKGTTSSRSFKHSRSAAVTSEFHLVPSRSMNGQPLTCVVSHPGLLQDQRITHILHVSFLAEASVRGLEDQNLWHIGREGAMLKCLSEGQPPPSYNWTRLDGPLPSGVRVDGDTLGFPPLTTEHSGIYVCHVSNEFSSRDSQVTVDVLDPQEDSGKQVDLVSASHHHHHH

T2: human nectin-4 on cells (human, UniProt Q96NY8 32-510)
T2 construct: whole, on cells; also called PVRL4
T2 sequence (looked up): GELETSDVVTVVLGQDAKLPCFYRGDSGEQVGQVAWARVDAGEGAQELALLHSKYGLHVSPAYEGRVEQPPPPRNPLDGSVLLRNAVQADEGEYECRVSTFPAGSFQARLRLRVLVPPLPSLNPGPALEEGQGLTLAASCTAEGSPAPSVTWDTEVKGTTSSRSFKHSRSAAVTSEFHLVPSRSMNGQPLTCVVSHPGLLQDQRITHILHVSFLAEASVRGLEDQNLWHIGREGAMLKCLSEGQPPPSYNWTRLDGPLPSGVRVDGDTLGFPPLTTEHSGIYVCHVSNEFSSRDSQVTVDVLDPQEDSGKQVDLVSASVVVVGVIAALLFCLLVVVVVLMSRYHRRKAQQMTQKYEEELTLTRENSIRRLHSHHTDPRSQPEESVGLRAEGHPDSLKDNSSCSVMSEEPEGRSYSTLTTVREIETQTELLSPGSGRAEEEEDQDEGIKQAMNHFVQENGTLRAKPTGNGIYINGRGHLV

B1: TNT-196 (antibody, mouse IgG2a, kappa)
heavy: EVQLVESGGGLVQPGGSLRLSCAASGFTFSDYYMSWIRQAPGKGLEWVSGISWNSGSIGYADSVKGRFTISRDNSKNTLYLQMNSLRAEDTAVYYCASSGSWYLPLDYWGQGTLVTVSSAKTTAPSVYPLAPVCGDTTGSSVTLGCLVKGYFPEPVTLTWNSGSLSSGVHTFPAVLQSDLYTLSSSVTVTSSTWPSQSITCNVAHPASSTKVDKKIEPRGPTIKPCPPCKCPAPNLLGGPSVFIFPPKIKDVLMISLSPIVTCVVVDVSEDDPDVQISWFVNNVEVHTAQTQTHREDYNSTLRVVSALPIQHQDWMSGKEFKCKVNNKDLPAPIERTISKPKGSVRAPQVYVLPPPEEEMTKKQVTLTCMVTDFMPEDIYVEWTNNGKTELNYKNTEPVLDSDGSYFMYSKLRVEKKNWVERNSYSCSVVHEGLHNHHTTKSFSRTPGRPQGFGPP
light: DIQMTQSPSSLSASVGDRVTITCQASQDISNYLNWYQQKPGKVPKLLIYAASTLQSGVPSRFSGSGSGTDFTLTISSLQPEDFATYYCQQSYSTPLTFGGGTKVEIKRADAAPTVSIFPPSSEQLTSGGASVVCFLNNFYPKDINVKWKIDGSERQNGVLNSWTDQDSKDSTYSMSSTLTLTKDEYERHNSYTCEATHKTSTSPIVKSFNRNEC
B2: TNT-153 (antibody, mouse IgG2a, kappa)
heavy: EVQLVESGGGLVQPGGSLRLSCAASGFTFSSYNMNWVRQAPGKGLEWVSYISSSSSTIYYADSVKGRFTISRDNAKNSLSLQMNSLRDEDTAVYYCARAYYYGMDVWGQGTTVTVSSAKTTAPSVYPLAPVCGDTTGSSVTLGCLVKGYFPEPVTLTWNSGSLSSGVHTFPAVLQSDLYTLSSSVTVTSSTWPSQSITCNVAHPASSTKVDKKIEPRGPTIKPCPPCKCPAPNLLGGPSVFIFPPKIKDVLMISLSPIVTCVVVDVSEDDPDVQISWFVNNVEVHTAQTQTHREDYNSTLRVVSALPIQHQDWMSGKEFKCKVNNKDLPAPIERTISKPKGSVRAPQVYVLPPPEEEMTKKQVTLTCMVTDFMPEDIYVEWTNNGKTELNYKNTEPVLDSDGSYFMYSKLRVEKKNWVERNSYSCSVVHEGLHNHHTTKSFSRTPGLLQGG
light: DIQMTQSPSSVSASVGDRVTITCRASQGISGWLAWYQQKPGKAPKFLIYAASTLQSGVPSRFSGSGSGTDFTLTISSLQPEDFATYYCQQANSFPPTFGGGTKVEIKRADAAPTVSIFPPSSEQLTSGGASVVCFLNNFYPKDINVKWKIDGSERQNGVLNSWTDQDSKDSTYSMSSTLTLTKDEYERHNSYTCEATHKTSTSPIVKSFNRNEC

Columns and labels:
[1] = biological target: T1, Human nectin-4 ECD-6His (TNT-175); assay: competition ELISA; nectin-4 ECD premixed with TNT212, captured by the coat antibody; % of signal without premix antibody
Procedure: (§1) Competition experiments of nectin-4 antibodies. ELISA plates were coated overnight at 4° C. with goat anti-mouse IgG at […] in PBS. […] As positive control, nectin-4 was diluted at same concentrations without a premix antibody. Two wells per plate were allocated for diluent only as negative/background control. Plates were washed as previously, 50 μL/well of premix was added to each plate and incubated for one hour. Plates were washed then incubated at room temperature for one hour with Rabbit anti 6× HIS HRP diluted 1:4,000 in diluent. Plates were washed once more and incubated at room temperature for 20 minutes with 50 μL/well of ABTS substrate. […] Binding was measured as an Optical Density (O.D.) value normalized to background and calculated as a percentage of positive control at the lowest nectin-4 dilution for greatest resolution.

[2] = biological target: T1, Human nectin-4 ECD-6His (TNT-175); assay: competition ELISA; nectin-4 ECD premixed with TNT202, captured by the coat antibody; % of signal without premix antibody
Procedure: as §1

[3] = biological target: T1, Human nectin-4 ECD-6His (TNT-175); assay: competition ELISA; nectin-4 ECD premixed with TNT211, captured by the coat antibody; % of signal without premix antibody
Procedure: as §1

[4] = biological target: T1, Human nectin-4 ECD-6His (TNT-175); assay: competition ELISA; nectin-4 ECD premixed with TNT209, captured by the coat antibody; % of signal without premix antibody
Procedure: as §1

[5] = biological target: T1, Human nectin-4 ECD-6His (TNT-175); assay: competition ELISA; nectin-4 ECD premixed with TNT203, captured by the coat antibody; % of signal without premix antibody
Procedure: as §1

human nectin-4 on cells = biological target: T2, human nectin-4 on cells; assay: flow cytometry MFI, MNK74 (nectin-4 positive) over AGS (negative)
Procedure: Cell binding of nectin-4 antibodies. Cell binding of the nectin-4 antibodies was also assessed. MNK74 (nectin-4 positive) and AGS (nectin-4 negative) cells were obtained from ATCC and cultured according to their protocols. Cells were detached with TrypLE (Gibco) and washed by centrifugation for five minutes at 400×g with FACS buffer (PBS+2% FBS). Cells were resuspended in FACS buffer, plated in 96-well format (0.25 e6/well) then pelleted by centrifugation for five minutes at 400×g. Cells were stained at 4° C. in Fixable Viability Dye eFluor 506 (eBioscience) diluted 1:4,000 in PBS. […] Cells were centrifuged, washed once in FACS buffer and stained at 4° C. with Goat F(ab′)₂ anti-Mouse IgG APC (Southern Biotech) diluted 1:400 in FACS buffer for 30 minutes or appropriate anti-human IgG. Cells were centrifuged, washed twice and fixed in 0.5% paraformaldehyde. Cells were analyzed on Attune NxT Flow Cytometer (Thermo Fisher), with subsequent data analysis by Flowjo 10.7 (BD). Dead cells were excluded by gating on the eFluor 506-negative population. […] Binding was assessed by median fluorescent intensity.

[6] = biological target: T1, Human nectin-4 ECD-6His (TNT-175); assay: competition ELISA; nectin-4 ECD premixed with TNT204, captured by the coat antibody; % of signal without premix antibody
Procedure: as §1

[7] = biological target: T1, Human nectin-4 ECD-6His (TNT-175); assay: competition ELISA; nectin-4 ECD premixed with TNT205, captured by the coat antibody; % of signal without premix antibody
Procedure: as §1

[8] = biological target: T1, Human nectin-4 ECD-6His (TNT-175); assay: competition ELISA; nectin-4 ECD premixed with TNT208, captured by the coat antibody; % of signal without premix antibody
Procedure: as §1

[9] = biological target: T1, Human nectin-4 ECD-6His (TNT-175); assay: competition ELISA; nectin-4 ECD premixed with TNT206, captured by the coat antibody; % of signal without premix antibody
Procedure: as §1

[10] = biological target: T1, Human nectin-4 ECD-6His (TNT-175); assay: competition ELISA; nectin-4 ECD premixed with TNT201, captured by the coat antibody; % of signal without premix antibody
Procedure: as §1

[11] = biological target: T1, Human nectin-4 ECD-6His (TNT-175); assay: competition ELISA; nectin-4 ECD premixed with TNT210, captured by the coat antibody; % of signal without premix antibody
Procedure: as §1

[12] = biological target: T1, Human nectin-4 ECD-6His (TNT-175); assay: SPR ProteOn, mAb on protein A
Procedure: Initial testing of binding of nectin-4 antibodies to nectin-4. […] Biotinylated protein A (15 μg/mL) was immobilized to the surface of an NLC chip. 30 nM of purified mAb supernatant was diluted in PBS-T and captured over the protein A surface. Serial dilutions of human nectin-4 were injected over the mAb-coated chips, and binding kinetics were determined. Chips were regenerated using 4:1 v/v of IgG elution butter/4M NaCl.

[13] = biological target: T1, Human nectin-4 ECD-6His (TNT-175); assay: competition ELISA; nectin-4 ECD premixed with TNT207, captured by the coat antibody; % of signal without premix antibody
Procedure: as §1

Row | Binder | % of Positive [1] [%] | % of Positive [2] [%] | % of Positive [3] [%] | % of Positive [4] [%] | % of Positive [5] [%] | Fold-change of binding to MNK74 compared to control AGS (human nectin-4 on cells) [fold] | % of Positive [6] [%] | % of Positive [7] [%] | % of Positive [8] [%] | % of Positive [9] [%] | % of Positive [10] [%] | % of Positive [11] [%] | Kd [12] [nM] | koff [12] [s⁻¹] | kon [12] [M⁻¹ s⁻¹] | % of Positive [13] [%]
1 | B1 | 1.8 | 2.8 | 13.8 | 17.8 | 18.3 | 6 | 2.6 | 35.9 | 2 | 5.5 | 0.9 | 1.5 | 15.2 | 0.0245 | 1.62e+06 | 1.3
2 | B2 | 5.6 | 3.6 | 22.2 | 26.2 | 28.8 | 7.4 | 4.2 | 50 | 3.5 | 7.7 | 2.8 | 4 | 3.8 | 0.00399 | 1.05e+06 | 2.2
